B1: CPEB3 Ribozyme (parent)
chain: GGGGGCCACAGCAGAAGCGUUCACGUCGCGGCCCCUGUCAGAUUCUGGUGAAUCUGCGAAUUCUGCUGU

In this data set the parent is B1. The data set can be described thus: self-cleavage, relative activity (ratio to wild type); higher = more cleavage; co-transcriptional.
As for GGGGGCCACAGCAGAAGCGUUCACGUCGCGGCCACUGUCAGAUUCUGUUGAAUCUGCGAAUUCUGCUGU, the self-cleavage is 0.877.

Take GGGGGCCACAGCAGAAGCGUUCACGUCGCGGCCACUGUCAGAUUCUGCUGAAUCUGCGAAUUCUGCUGU: the self-cleavage is 0.857.

Consider GGGGGCCACAGCAGAAGCGUUCACGUCGCGGCUCCUGUCAGAUUCUGGAGAAUCUGCGAAUUCUGCUGU, for which the self-cleavage turned out to be 0.97.

Consider GGGGGCCACAGCAGAAGCGUUCACGUCGCGGCUCCUGUCAGAUUCUGGGGAAUCUGCGAAUUCUGCUGU, for which the self-cleavage was 0.996.

As for GGGGGCCACAGCAGAAGCGUUCACGUCGCGGCUCCUGUCAGAUUCUGGCGAAUCUGCGAAUUCUGCUGU, the self-cleavage came out at 1.02.

Regarding GGGGGCCACAGCAGAAGCGUUCACGUCGCGGCCACUGUCAUAUUCUGGUGAAUCUGCGAAUUCUGCUGU, the self-cleavage turned out to be 0.339.

As for GGGGGCCACAGCAGAAGCGUUCACGUCGCGGCCACUGUCAAAUUCUGGUGAAUCUGCGAAUUCUGCUGU, the self-cleavage is 0.341.

Take GGGGGCCACAGCAGAAGCGUUCACGUCGCGGCCACUGUCACAUUCUGGUGAAUCUGCGAAUUCUGCUGU: the self-cleavage worked out at 0.33.

For the variant GGGGGCCACAGCAGAAGCGUUCACGUCGCGGCCACUGUCAGAUUCUGGUGAAUCUUCGAAUUCUGCUGU, the self-cleavage amounted to 0.679.

In the case of GGGGGCCACAGCAGAAGCGUUCACGUCGCGGCCACUGUCAGAUUCUGGUGAAUCUCCGAAUUCUGCUGU, the self-cleavage was 0.438.

GGGGGCCACAGCAGAAGCGUUCACGUCGCGGCCACUGUCAGAUUCUGGUGAAUCUGCGAAUUGUGCUGU: the self-cleavage turned out to be 0.411.

For GGGGGCCACAGCAGAAGCGUUCACGUCGCGGCCACUGUCAGAUUCUGGUGAAUCUGCGAAUUAUGCUGU, the self-cleavage is 0.495.

Consider GGGGGCCACAGCAGAAGCGUUCACGUCGCGGCCACUGUCAGAUUCUGGUGAAUCUGCGAAUUUUGCUGU, for which the self-cleavage was 0.817.

Take GGGGGCCACAGCAGAAGCGUUCACGUCGCGGCCACUGUCAGAUUCUGGUGAAUCUGCGUAUUCUGCUGU: the self-cleavage came out at 0.436.

Turning to GGGGGCCACAGCAGAAGCGUUCACGUCGCGGCCACUGUCAGAUUCUGGUGAAUCUGCGGAUUCUGCUGU, the self-cleavage worked out at 0.609.

For the variant GGGGGCCACAGCAGAAGCGUUCACGUCGCGGCUCCUGUCAGAUUCUGGUGAAUCUGCGAAGUCUGCUGU, the self-cleavage is 0.82.

In the case of GGGGGCCACAGCAGAAGCGUUCACGUCGCGGCUCCUGUCAGAUUCUGGUGAAUCUGCGAAAUCUGCUGU, the self-cleavage stood at 0.905.

As for GGGGGCCACAGCAGAAGCGUUCACGUCGCGGCUCCUGUCAGAUUCUGGUGAAUCUGCGAACUCUGCUGU, the self-cleavage is 0.913.

Consider GGGGGCCACAGCAGAAGCGUUCACGUCGCGGCUCCUGUCAGAUUCCGGUGAAUCUGCGAAUUCUGCUGU, for which the self-cleavage was 0.977.

On to GGGGGCCACAGCAGAAGCGUUCACGUCGCGGCUCCUGUCAGAUUCGGGUGAAUCUGCGAAUUCUGCUGU, for which the self-cleavage stood at 0.979.

Turning to GGGGGCCACAGCAGAAGCGUUCACGUCGCGGCUCCUGUCAGAUUCAGGUGAAUCUGCGAAUUCUGCUGU, the self-cleavage turned out to be 0.98.

As for GGGGGCCACAGCAGAAGCGUUCACGUCGCGGCCACUGUCAGAUUCUGGUGAAUCUGCGAAUUCUACUGU, the self-cleavage worked out at 0.617.

Regarding GGGGGCCACAGCAGAAGCGUUCACGUCGCGGCCACUGUCAGAUUCUGGUGAAUCUGCGAAUUCUUCUGU, the self-cleavage was 0.57.

Regarding GGGGGCCACAGCAGAAGCGUUCACGUCGCGGCCACAGUCAGAUUCUGGUGAAUCUGCGAAUUCUGCUGU, the self-cleavage is 0.229.

As to GGGGGCCACAGCAGAAGCGUUCACGUCGCGGCCACUGUCAGCUUCUGGUGAAUCUGCGAAUUCUGCUGU, the self-cleavage was determined as 0.46.

As for GGGGGCCACAGCAGAAGCGUUCACGUCGCGGCCACUGUCAGAUUCUUGUGAAUCUGCGAAUUCUGCUGU, the self-cleavage was 0.914.

With GGGGGCCACAGCAGAAGCGUUCACGUCGCGGCCACUGUCAGAUUCUAGUGAAUCUGCGAAUUCUGCUGU, the self-cleavage stood at 0.915.

Consider GGGGGCCACAGCAGAAGCGUUCACGUCGCGGCCACUGUCAGAUUCUCGUGAAUCUGCGAAUUCUGCUGU, for which the self-cleavage worked out at 0.887.

In the case of GGGGGCCACAGCAGAAGCGUUCACGUCGCGGCUCCUGUCAGAAUCUGGUGAAUCUGCGAAUUCUGCUGU, the self-cleavage came to 0.915.

For GGGGGCCACAGCAGAAGCGUUCACGUCGCGGCUCCUGUCAGAGUCUGGUGAAUCUGCGAAUUCUGCUGU, the self-cleavage was determined as 0.678.

For GGGGGCCACAGCAGAAGCGUUCACGUCGCGGCCACUGUCUGAUUCUGGUGAAUCUGCGAAUUCUGCUGU, the self-cleavage worked out at 0.468.

Turning to GGGGGCCACAGCAGAAGCGUUCACGUCGCGGCCACUGUCGGAUUCUGGUGAAUCUGCGAAUUCUGCUGU, the self-cleavage was 0.788.

On to GGGGGCCACAGCAGAAGCGUUCACGUCGCGGCUCCUGCCAGAUUCUGGUGAAUCUGCGAAUUCUGCUGU, for which the self-cleavage is 0.899.

Turning to GGGGGCCACAGCAGAAGCGUUCACGUCGCGGCUCCUGGCAGAUUCUGGUGAAUCUGCGAAUUCUGCUGU, the self-cleavage amounted to 0.215.

As to GGGGGCCACAGCAGAAGCGUUCACGUCGCGGCCACUGUCAGAUUUUGGUGAAUCUGCGAAUUCUGCUGU, the self-cleavage was 0.798.

With GGGGGCCACAGCAGAAGCGUUCACGUCGCGGCCACUGUUAGAUUCUGGUGAAUCUGCGAAUUCUGCUGU, the self-cleavage came out at 0.467.

Consider GGGGGCCACAGCAGAAGCGUUCACGUCGCGGCCACUGUGAGAUUCUGGUGAAUCUGCGAAUUCUGCUGU, for which the self-cleavage turned out to be 0.538.

With GGGGGCCACAGCAGAAGCGUUCACGUCGCGGCCAGUGUCAGAUUCUGGUGAAUCUGCGAAUUCUGCUGU, the self-cleavage stood at 0.177.

On to GGGGGCCACAGCAGAAGCGUUCACGUCGCGGCCAUUGUCAGAUUCUGGUGAAUCUGCGAAUUCUGCUGU, for which the self-cleavage came out at 0.226.
